PMC9241285

Target: recombinant human Aβ42 sodium hydroxide (NaOH) salt (human) (UniProt P05067)

recombinant human apoE4, sequence (P02649 19-317): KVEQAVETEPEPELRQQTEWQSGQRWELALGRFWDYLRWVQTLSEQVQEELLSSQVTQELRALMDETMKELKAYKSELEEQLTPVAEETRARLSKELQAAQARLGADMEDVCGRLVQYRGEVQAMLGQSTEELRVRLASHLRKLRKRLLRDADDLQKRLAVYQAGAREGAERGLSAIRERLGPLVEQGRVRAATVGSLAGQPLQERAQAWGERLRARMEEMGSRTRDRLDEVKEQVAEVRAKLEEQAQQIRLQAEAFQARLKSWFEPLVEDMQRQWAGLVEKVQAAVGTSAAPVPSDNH

reduction of apoE4-catalyzed Aβ42 fibrillization (ThT, HTS assay) by imipramine at 0.25, 2.5 and 25 μM; no effect on Aβ42 alone: > 30%
reduction of apoE4-catalyzed Aβ42 fibrillization (ThT, HTS assay) by olanzapine at 0.25, 2.5 and 25 μM; no effect on Aβ42 alone: > 30%
reduction of apoE4-catalyzed Aβ42 fibrillization (ThT, HTS assay) by sulfacetamide at 0.25, 2.5 and 25 μM; no effect on Aβ42 alone: > 30%
Substance: recombinant human apoE4 (from UniProt P02649 19-317) (natural protein)
